In publication PMC12490080, “Natural variation in Arabidopsis thaliana highlights a key role of glyoxalase I;2 in detoxifying glucose-derived reactive carbonyl species” (BMC Plant Biology, 2025) one finds Km, kcat and kcat/Km data, which are given here for four proteins.

A word on the Km: it is the substrate concentration at which the rate is half of its maximum. The term kcat denotes the number of substrate molecules converted per active site and unit of time at saturation. One may read the kcat/Km as the turnover number divided by the Michaelis constant.

Substrate in data set [1]: CC(=O)C=O
Description: purified protein. In kind it is biochemical, Arabidopsis thaliana. The note with it: true substrate is the hemithioacetal of MGO and GSH (preformed 30 min; HTA concentration calculated with Kdiss 3.0 mM), 1.7 mM GSH, 0.5 mM Ni2+, 100 mM MOPS pH 7.0, 25 °C.

Substrate in data set [2]: O=CC=O
Description: purified protein. The data set is classed as biochemical, Arabidopsis thaliana. The note with it: true substrate is the hemithioacetal of GO and GSH (preformed 30 min; HTA concentration calculated with Kdiss 3.0 mM), 1.7 mM GSH, 0.5 mM Mn2+, 100 mM MOPS pH 7.0, 25 °C.

B1: GLXI;2 (Col-0 GLXI;2) (Arabidopsis thaliana) (protein)
chain: MAEASDLLEWPKKDNRRFLHVVYRVGDLDRTIEFYTEVFGMKLLRKRDIPEEKYSNAFLGFGPETSNFVVELTYNYGVSSYDIGTGFGHFAISTQDVSKLVENVRAKGGNVTREPGPVKGGGSVIAFVKDPDGYTFELIQRGPTPEPFCQVMLRVGDLDRAIKFYEKALGMRLLRKIERPEYKYTIGMMGYAEEYESIVLELTYNYDVTEYTKGNAYAQIAIGTDDVYKSGEVIKIVNQELGGKITREAGPLPGLGTKIVSFLDPDGWKTVLVDNKDFLKELE
notes: monomer; two domains, active site 2 (His89, Glu137, Gln150, Glu201)
For B1, in the data set “purified protein [1]”, the Km was 297 ± 14 µM, the kcat is 7.5 ± 0.9 s⁻¹ and the kcat/Km was 25300 ± 1700 M⁻¹ s⁻¹. Also, in the data set “purified protein [2]”, the Km is 411 ± 18 µM, the kcat was 2.8 ± 0.3 s⁻¹ and the kcat/Km is 6800 ± 600 M⁻¹ s⁻¹.

B2: GLXI;2 (Col-0 GLXI;2) (Arabidopsis thaliana; F278I/K229N) (protein)
chain: MAEASDLLEWPKKDNRRFLHVVYRVGDLDRTIEFYTEVFGMKLLRKRDIPEEKYSNAFLGFGPETSNFVVELTYNYGVSSYDIGTGFGHFAISTQDVSKLVENVRAKGGNVTREPGPVKGGGSVIAFVKDPDGYTFELIQRGPTPEPFCQVMLRVGDLDRAIKFYEKALGMRLLRKIERPEYKYTIGMMGYAEEYESIVLELTYNYDVTEYTKGNAYAQIAIGTDDVYNSGEVIKIVNQELGGKITREAGPLPGLGTKIVSFLDPDGWKTVLVDNKDILKELE
notes: as for B1
For B2, in “purified protein [1]”, the Km was 302 ± 15 µM, the kcat is 8.1 ± 1.1 s⁻¹ and the specificity constant (kcat/Km) was 25800 ± 2100 M⁻¹ s⁻¹. In “purified protein [2]”, the Km was 407 ± 15 µM, the kcat was 2.6 ± 0.3 s⁻¹ and the kcat/Km was 6700 ± 500 M⁻¹ s⁻¹.

B3: GLXI;2 (Col-0 GLXI;2) (Arabidopsis thaliana; F278I) (protein)
chain: MAEASDLLEWPKKDNRRFLHVVYRVGDLDRTIEFYTEVFGMKLLRKRDIPEEKYSNAFLGFGPETSNFVVELTYNYGVSSYDIGTGFGHFAISTQDVSKLVENVRAKGGNVTREPGPVKGGGSVIAFVKDPDGYTFELIQRGPTPEPFCQVMLRVGDLDRAIKFYEKALGMRLLRKIERPEYKYTIGMMGYAEEYESIVLELTYNYDVTEYTKGNAYAQIAIGTDDVYKSGEVIKIVNQELGGKITREAGPLPGLGTKIVSFLDPDGWKTVLVDNKDILKELE
notes: as for B1
Consider B3, for which, in the data set “purified protein [1]”, the Km is 311 ± 18 µM, the kcat was 8.4 ± 1.2 s⁻¹ and the kcat/Km is 27000 ± 2400 M⁻¹ s⁻¹. For the same protein, in “purified protein [2]”, the Km is 403 ± 12 µM, the kcat was 2.5 ± 0.4 s⁻¹ and the kcat/Km is 6200 ± 300 M⁻¹ s⁻¹.

B4: GLXI;2 (Col-0 GLXI;2) (Arabidopsis thaliana; K229N) (protein)
chain: MAEASDLLEWPKKDNRRFLHVVYRVGDLDRTIEFYTEVFGMKLLRKRDIPEEKYSNAFLGFGPETSNFVVELTYNYGVSSYDIGTGFGHFAISTQDVSKLVENVRAKGGNVTREPGPVKGGGSVIAFVKDPDGYTFELIQRGPTPEPFCQVMLRVGDLDRAIKFYEKALGMRLLRKIERPEYKYTIGMMGYAEEYESIVLELTYNYDVTEYTKGNAYAQIAIGTDDVYNSGEVIKIVNQELGGKITREAGPLPGLGTKIVSFLDPDGWKTVLVDNKDFLKELE
notes: as for B1
Take B4: in the data set “purified protein [1]”, the Km is 295 ± 23 µM, the kcat is 9.1 ± 1.7 s⁻¹ and the kcat/Km is 26400 ± 2200 M⁻¹ s⁻¹. For the same protein, in “purified protein [2]”, the Km was 415 ± 17 µM, the catalytic constant (kcat) was 2.4 ± 0.3 s⁻¹ and the kcat/Km is 6500 ± 500 M⁻¹ s⁻¹.
